A short description of this series: total protein half-life in vivo (active degradation + dilution); higher = more stable protein.
The mark [1] stands for this setting: E. coli NCM3722 delta-clpP delta-lon delta-hslV, growth: N-lim chemostat, doubling time 6 h.
Where [2] appears, read: E. coli NCM3722 delta-clpP, growth: N-lim chemostat, doubling time 6 h.
[3] abbreviates: E. coli NCM3722 delta-hslV, growth: N-lim chemostat, doubling time 6 h.
The mark [4] stands for this setting: E. coli NCM3722 delta-lon, growth: N-lim chemostat, doubling time 6 h.
Where [5] appears, read: E. coli NCM3722 delta-smpB, growth: N-lim chemostat, doubling time 6 h.
Setting [6] is: wild type E. coli NCM3722, growth: C-lim chemostat, doubling time 3 h.
[7] abbreviates: wild type E. coli NCM3722, growth: C-lim chemostat, doubling time 6 h.
The mark [8] stands for this setting: wild type E. coli NCM3722, growth: C-lim chemostat, doubling time 12 h.
Where [9] appears, read: wild type E. coli NCM3722, growth: N-lim chemostat, doubling time 6 h.
[10] abbreviates: wild type E. coli NCM3722, growth: N-lim chemostat, doubling time 12 h.
[11] abbreviates: wild type E. coli NCM3722, growth: P-lim chemostat, doubling time 6 h.
[12] abbreviates: wild type E. coli NCM3722, growth: P-lim chemostat, doubling time 12 h.

± gives the standard deviation of the averaged measurements.

For “MAHIVTLNTPSREDWLTQLADVVTDPDELLRLLNIDAEEKLLAGRSAKKLFALRVPRSFIDRMEKGNPDDPLLRQVLTSQDEFVIAPGFSTDPLEEQHSVVPGLLHKYHNRALLLVKGGCAVNCRYCFRRHFPYAENQGNKRNWQTALEYVAAHPELDEMIFSGGDPLMAKDHELDWLLTQLEAIPHIKRLRIHSRLPIVIPARITEALVECFARSTLQILLVNHINHANEVDETFRQAMAKLRRVGVTLLNQSVLLRDVNDNAQTLANLSNALFDAGVMPYYLHVLDKVQGAAHFMVSDDEARQIMRELLTLVSGYLVPKLAREIGGEPSKTPLDLQLRQQ”, the “total protein half-life in vivo” value was 5.05 ± 0.77 h under setting [1]; 2.63 ± 0.045 h under setting [2]; 1.02 ± 0.14 h under setting [3]; 1.61 ± 0.14 h under setting [4]; 1.33 h under setting [5]; 1.41 ± 0.071 h under setting [6]. Besides, the “total protein half-life in vivo” value was 1.57 ± 0.15 h under setting [7]; 3.35 ± 1.6 h under setting [8]; 1.58 ± 0.58 h under setting [9]; 2.05 h under setting [10]; 1.51 ± 0.33 h under setting [11]; 2.71 ± 0.88 h under setting [12].
As for “MGFKCGIVGLPNVGKSTLFNALTKAGIEAANFPFCTIEPNTGVVPMPDPRLDQLAEIVKPQRTLPTTMEFVDIAGLVKGASKGEGLGNQFLTNIRETEAIGHVVRCFENDNIIHVSGKVNPADDIEVINTELALADLDTCERAIHRVQKKAKGGDKDAKAELAVLEKCLPQLENAGMLRALDLSAEEKAAIRYLSFLTLKPTMYIANVNEDGFENNPYLDQVREIAAKEGSVVVPVCAAVEADIAELDDEERDEFMQELGLEEPGLNRVIRAGYKLLNLQTYFTAGVKEVRAWTIPVGATAPQAAGKIHTDFEKGFIRAQTISFEDFITYKGEQGAKEAGKMRAEGKDYIVKDGDVMNFLFNV [P0ABU2]”, the “total protein half-life in vivo” value runs as follows: under setting [1], 3.92 ± 0.14 h; under setting [2], 3.74 ± 0.63 h; under setting [3], 3.66 ± 0.24 h; under setting [4], 4.72 ± 0.67 h; under setting [5], 3.69 ± 0.13 h; under setting [6], 3.61 ± 0.17 h. In addition, the “total protein half-life in vivo” value runs as follows: under setting [7], 4.77 ± 0.28 h; under setting [8], 9.13 ± 0.49 h; under setting [9], 3.5 ± 0.18 h; under setting [10], 5.15 ± 0.31 h; under setting [11], 5.12 ± 0.4 h; under setting [12], 9.68 ± 0.37 h.
“MKTFSDRWRQLDWDDIRLRINGKTAADVERALNASQLTRDDMMALLSPAASGYLEQLAQRAQRLTRQRFGNTVSFYVPLYLSNLCANDCTYCGFSMSNRIKRKTLDEADIARESAAIREMGFEHLLLVTGEHQAKVGMDYFRRHLPALREQFSSLQMEVQPLAETEYAELKQLGLDGVMVYQETYHEATYARHHLKGKKQDFFWRLETPDRLGRAGIDKIGLGALIGLSDNWRVDSYMVAEHLLWLQQHYWQSRYSVSFPRLRPCTGGIEPASIMDERQLVQTICAFRLLAPEIELSLSTRESPWFRDRVIPLAINNVSAFSKTQPGGYADNHPELEQFSPHDDRRPEAVAAALTAQGLQPVWKDWDSYLGRASQRL”: the “total protein half-life in vivo” value runs as follows: under setting [1], 4.35 ± 0.4 h; under setting [2], 0.761 ± 0.12 h; under setting [3], 0.71 ± 0.041 h; under setting [4], 1.45 ± 0.13 h; under setting [5], 0.7458 ± 0.0057 h; under setting [6], 0.948 ± 0.075 h. Further, the “total protein half-life in vivo” value was found to be 1.02 ± 0.03 h under setting [7]; 0.988 ± 0.12 h under setting [8]; 0.86 ± 0.0097 h under setting [9]; 1.08 ± 0.084 h under setting [10]; 1.09 ± 0.25 h under setting [11]; 1.93 ± 0.64 h under setting [12].
Regarding “MSKQSQHVLIALPHPLLHLVSLGLVSFIFTLFSLELSQFGTQLAPLWFPTSIMMVAFYRHAGRMWPGIALSCSLGNIAASILLFSTSSLNMTWTTINIVEAVVGAVLLRKLLPWYNPLQNLADWLRLALGSAIVPPLLGGVLVVLLTPGDDPLRAFLIWVLSESIGALALVPLGLLFKPHYLLRHRNPRLLFESLLTLAITLTLSWLSMLYLPWPFTFIIVLLMWSAVRLPRMEAFLIFLTTVMMVSLMMAADPSLLATPRTYLMSHMPWLPFLLILLPANIMTMVMYAFRAERKHISESETHFRNAMEYSAIGMALVGTEGQWLQTNKALCQFLGYSQEELRGLTFQQLTWPEDLNKDLQQVEKLISGEINTYSMEKRYYNRNGDVVWALLAVSLVRHTDGTPLYFIAQIEDINELKRTEQVNQQLMERITLANEAGGIGIWEWELKPNIFSWDKRMFELYEIPPHIKPNWQVWYECVLPEDRQHAEKVIRDSLQSRSPFKLEFRITVKDGIRHIRALANRVLNKEGEVERLLGINMDMTEVKQLNEALFQEKERLHITLDSIGEAVVCIDMAMKITFMNPVAEKMSGWTQEEALGVPLLTVLHITFGDNGPLMENIYSADTSRSAIEQDVVLHCRSGGSYDVHYSITPLSTLDGSNIGSVLVIQDVTESRKMLRQLSYSASHDALTHLANRASFEKQLRILLQTVNSTHQRHALVFIDLDRFKAVNDSAGHAAGDALLRELASLMLSMLRSSDVLARLGGDEFGLLLPDCNVESARFIATRIISAVNDYHFIWEGRVHRVGASAGITLIDDNNHQAAEVMSQADIACYASKNGGRGRVTVYEPQQAAAHSERAAMSLDEQWRMIKENQLMMLAHGVASPRIPEARNLWLISLKLWSCEGEIIDEQTFRRSFSDPALSHALDRRVFHEFFQQAAKAVASKGISISLPLSVAGLSSATLVNDLLEQLENSPLPPRLLHLIIPAEAILDHAESVQKLRLAGCRIVLSQVGRDLQIFNSLKANMADYLLLDGELCANVQGNLMDEMLITIIQGHAQRLGMKTIAGPVVLPLVMDTLSGIGVDLIYGEVIADAQPLDLLVNSSYFAIN”, the “total protein half-life in vivo” value under setting [1] turned out to be 4.93 ± 0.2 h, the “total protein half-life in vivo” value under setting [8] was 9.36 h and the “total protein half-life in vivo” value under setting [11] worked out at 1.53 h.
Take “MSALFLAIPLTIFVLFVLPIWLWLHYSNRSGRSELSQSEQQRLAQLADEAKRMRERIQALESILDAEHPNWRDR [P0AFM9]”: the “total protein half-life in vivo” value runs as follows: under setting [1], 6.51 ± 0.1 h; under setting [2], 6.06 h; under setting [3], 6.22 ± 0.43 h; under setting [4], 5.01 ± 1.7 h; under setting [5], 6.04 ± 0.43 h; under setting [6], 2.84 ± 0.24 h. Moreover, the “total protein half-life in vivo” value is, setting by setting: under setting [7], 5.55 ± 1.4 h; under setting [8], 13.4 ± 2.2 h; under setting [9], 6.02 ± 0.28 h; under setting [11], 4.5 ± 1.6 h; under setting [12], 12.1 ± 0.9 h.

The record behind these values is the supplement of paper PMC11246515.
